Source: US20210393741A1

Biological target: CD91 on macrophages (mouse (C57BL/6 mice)) (UniProt Q91ZX7)
Assay: cell-based or functional assay

Sequence of UniProt Q91ZX7 (Q91ZX7 20-4545): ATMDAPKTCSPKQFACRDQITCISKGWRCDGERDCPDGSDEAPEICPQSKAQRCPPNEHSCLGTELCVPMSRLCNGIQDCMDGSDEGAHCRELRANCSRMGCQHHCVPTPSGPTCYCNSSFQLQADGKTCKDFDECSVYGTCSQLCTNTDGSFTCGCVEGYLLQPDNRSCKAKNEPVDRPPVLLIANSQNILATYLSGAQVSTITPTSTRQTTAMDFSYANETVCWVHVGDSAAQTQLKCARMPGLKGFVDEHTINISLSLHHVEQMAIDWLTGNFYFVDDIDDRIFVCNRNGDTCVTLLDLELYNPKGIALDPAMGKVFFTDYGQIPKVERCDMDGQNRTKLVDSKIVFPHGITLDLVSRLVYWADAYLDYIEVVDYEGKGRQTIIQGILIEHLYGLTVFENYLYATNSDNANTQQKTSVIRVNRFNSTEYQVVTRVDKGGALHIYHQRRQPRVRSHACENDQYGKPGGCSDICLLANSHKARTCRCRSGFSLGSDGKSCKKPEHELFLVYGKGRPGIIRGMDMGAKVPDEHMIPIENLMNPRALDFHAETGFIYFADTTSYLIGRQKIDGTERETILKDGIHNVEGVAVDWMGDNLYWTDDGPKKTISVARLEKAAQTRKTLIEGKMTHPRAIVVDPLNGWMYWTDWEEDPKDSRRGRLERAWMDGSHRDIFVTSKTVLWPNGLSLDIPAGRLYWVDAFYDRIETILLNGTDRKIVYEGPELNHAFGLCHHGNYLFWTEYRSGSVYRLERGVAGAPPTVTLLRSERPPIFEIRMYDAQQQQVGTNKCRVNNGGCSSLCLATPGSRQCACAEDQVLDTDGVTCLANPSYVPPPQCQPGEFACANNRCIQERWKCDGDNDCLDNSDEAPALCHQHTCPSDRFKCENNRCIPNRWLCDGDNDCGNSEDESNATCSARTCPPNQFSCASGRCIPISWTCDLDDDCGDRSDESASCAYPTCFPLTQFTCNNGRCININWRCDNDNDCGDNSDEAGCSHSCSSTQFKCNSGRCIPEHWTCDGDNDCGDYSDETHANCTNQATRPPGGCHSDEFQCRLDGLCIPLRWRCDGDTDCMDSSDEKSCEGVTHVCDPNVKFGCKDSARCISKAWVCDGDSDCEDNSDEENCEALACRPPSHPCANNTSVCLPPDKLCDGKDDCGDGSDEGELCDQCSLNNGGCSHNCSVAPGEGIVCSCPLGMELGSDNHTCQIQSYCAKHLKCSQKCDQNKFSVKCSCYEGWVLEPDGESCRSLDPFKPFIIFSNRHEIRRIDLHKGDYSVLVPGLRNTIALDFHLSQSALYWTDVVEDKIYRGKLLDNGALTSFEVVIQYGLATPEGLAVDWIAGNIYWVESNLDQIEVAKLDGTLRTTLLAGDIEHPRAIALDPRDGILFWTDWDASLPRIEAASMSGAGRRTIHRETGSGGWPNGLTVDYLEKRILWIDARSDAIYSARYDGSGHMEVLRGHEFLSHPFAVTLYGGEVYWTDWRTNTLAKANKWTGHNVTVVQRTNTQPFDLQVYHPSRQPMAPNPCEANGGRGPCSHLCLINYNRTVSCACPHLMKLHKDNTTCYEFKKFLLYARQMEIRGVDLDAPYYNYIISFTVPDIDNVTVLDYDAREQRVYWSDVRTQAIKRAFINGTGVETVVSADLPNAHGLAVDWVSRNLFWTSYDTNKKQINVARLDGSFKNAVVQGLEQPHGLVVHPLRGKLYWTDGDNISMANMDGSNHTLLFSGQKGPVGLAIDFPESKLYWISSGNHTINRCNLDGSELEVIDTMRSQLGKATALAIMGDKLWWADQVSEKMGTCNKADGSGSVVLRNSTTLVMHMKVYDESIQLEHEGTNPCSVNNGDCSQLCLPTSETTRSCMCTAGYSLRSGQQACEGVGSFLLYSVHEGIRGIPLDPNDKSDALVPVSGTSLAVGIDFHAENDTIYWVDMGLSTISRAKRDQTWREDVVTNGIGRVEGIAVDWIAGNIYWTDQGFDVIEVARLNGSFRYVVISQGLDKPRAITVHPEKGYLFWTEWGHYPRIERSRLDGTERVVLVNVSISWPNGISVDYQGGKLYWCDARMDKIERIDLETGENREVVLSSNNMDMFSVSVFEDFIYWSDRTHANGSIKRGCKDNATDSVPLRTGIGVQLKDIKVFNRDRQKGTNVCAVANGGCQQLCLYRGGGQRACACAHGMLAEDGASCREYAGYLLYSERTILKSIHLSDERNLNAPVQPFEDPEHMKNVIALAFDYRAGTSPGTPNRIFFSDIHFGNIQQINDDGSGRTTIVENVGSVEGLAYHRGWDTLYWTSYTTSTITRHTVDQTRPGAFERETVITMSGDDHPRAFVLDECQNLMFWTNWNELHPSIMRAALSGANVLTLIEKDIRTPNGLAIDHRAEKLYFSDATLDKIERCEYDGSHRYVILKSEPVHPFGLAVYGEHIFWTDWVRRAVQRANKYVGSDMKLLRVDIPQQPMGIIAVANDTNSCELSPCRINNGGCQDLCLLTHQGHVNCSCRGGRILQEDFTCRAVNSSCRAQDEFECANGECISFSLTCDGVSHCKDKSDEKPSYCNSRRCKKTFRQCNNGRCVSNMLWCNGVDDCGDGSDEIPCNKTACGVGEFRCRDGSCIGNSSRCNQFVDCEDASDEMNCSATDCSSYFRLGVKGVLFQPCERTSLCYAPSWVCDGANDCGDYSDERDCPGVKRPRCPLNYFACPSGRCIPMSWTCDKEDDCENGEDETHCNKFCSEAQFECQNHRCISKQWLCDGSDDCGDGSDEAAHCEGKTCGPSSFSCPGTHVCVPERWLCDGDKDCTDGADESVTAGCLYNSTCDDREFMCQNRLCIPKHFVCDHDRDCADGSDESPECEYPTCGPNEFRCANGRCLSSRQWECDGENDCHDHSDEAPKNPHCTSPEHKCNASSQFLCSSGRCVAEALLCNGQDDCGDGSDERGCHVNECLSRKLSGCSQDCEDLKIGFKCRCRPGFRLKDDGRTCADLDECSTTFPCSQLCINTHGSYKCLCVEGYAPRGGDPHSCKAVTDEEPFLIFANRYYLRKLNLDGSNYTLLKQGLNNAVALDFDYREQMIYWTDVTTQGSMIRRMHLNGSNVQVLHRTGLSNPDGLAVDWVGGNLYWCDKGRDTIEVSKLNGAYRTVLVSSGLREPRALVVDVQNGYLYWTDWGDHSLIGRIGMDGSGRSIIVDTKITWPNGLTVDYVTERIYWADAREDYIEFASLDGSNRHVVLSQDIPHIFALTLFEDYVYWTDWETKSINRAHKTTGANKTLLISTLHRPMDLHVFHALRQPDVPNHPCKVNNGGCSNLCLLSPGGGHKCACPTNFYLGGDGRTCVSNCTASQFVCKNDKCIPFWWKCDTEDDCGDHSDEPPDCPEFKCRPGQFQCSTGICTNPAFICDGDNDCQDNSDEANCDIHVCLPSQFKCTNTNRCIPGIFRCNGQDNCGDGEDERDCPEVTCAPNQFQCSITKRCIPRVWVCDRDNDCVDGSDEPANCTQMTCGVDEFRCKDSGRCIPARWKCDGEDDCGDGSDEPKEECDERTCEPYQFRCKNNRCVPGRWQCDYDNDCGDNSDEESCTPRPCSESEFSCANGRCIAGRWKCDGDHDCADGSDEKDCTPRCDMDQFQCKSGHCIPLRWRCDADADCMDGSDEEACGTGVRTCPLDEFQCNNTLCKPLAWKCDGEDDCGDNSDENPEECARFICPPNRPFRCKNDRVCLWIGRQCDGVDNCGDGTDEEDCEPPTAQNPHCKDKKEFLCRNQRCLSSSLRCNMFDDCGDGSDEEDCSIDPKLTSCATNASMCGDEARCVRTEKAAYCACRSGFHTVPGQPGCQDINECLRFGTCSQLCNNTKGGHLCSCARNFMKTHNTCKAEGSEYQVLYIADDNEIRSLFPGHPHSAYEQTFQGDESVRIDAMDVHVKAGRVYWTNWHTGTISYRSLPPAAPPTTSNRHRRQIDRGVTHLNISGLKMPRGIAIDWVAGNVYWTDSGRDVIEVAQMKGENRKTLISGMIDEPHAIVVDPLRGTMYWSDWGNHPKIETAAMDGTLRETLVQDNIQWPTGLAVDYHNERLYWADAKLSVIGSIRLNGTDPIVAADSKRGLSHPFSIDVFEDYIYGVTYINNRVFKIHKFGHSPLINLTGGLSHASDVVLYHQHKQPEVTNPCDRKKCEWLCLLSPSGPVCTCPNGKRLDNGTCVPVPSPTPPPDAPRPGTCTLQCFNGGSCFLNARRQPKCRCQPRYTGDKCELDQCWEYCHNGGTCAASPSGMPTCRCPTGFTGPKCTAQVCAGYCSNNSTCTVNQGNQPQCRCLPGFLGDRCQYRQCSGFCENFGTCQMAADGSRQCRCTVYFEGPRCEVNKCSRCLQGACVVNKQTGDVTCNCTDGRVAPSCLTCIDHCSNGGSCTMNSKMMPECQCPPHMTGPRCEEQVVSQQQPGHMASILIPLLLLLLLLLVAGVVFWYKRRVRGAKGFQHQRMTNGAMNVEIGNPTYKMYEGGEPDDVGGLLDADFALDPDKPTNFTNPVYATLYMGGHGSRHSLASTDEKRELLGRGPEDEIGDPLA

Substance: calreticulin (CRT), recombinant (ligand)
- IFN alpha MFI (Fold Change), RAW264.7 macrophage (M1) cells pulsed with calreticulin 10 ug/ml for 20 min, FACS: 7.5 fold change
- IFN beta MFI (Fold Change), RAW264.7 macrophage (M1) cells pulsed with calreticulin 10 ug/ml for 20 min, FACS: 7 fold change
- IL-12 MFI (Fold Change), RAW264.7 macrophage (M1) cells pulsed with calreticulin 10 ug/ml for 20 min, FACS: 3.5 fold change
- IL-15 MFI (Fold Change), RAW264.7 macrophage (M1) cells pulsed with calreticulin 10 ug/ml for 20 min, FACS: 3.5 fold change
